One data set has as its target T1, SIRT3 (Homo sapiens, UniProt Q9NTG7).
T1 construct: recombinant from E. coli (DE3)
T1 sequence (Q9NTG7 102-399): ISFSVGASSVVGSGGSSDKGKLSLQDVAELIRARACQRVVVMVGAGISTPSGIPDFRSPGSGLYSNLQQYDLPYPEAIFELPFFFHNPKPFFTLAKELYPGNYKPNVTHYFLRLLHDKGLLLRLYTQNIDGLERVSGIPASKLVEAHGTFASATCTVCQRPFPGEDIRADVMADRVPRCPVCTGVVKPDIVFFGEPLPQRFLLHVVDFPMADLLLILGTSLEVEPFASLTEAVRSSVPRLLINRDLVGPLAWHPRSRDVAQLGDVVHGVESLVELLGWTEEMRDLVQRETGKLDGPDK
The experiment in a line: deacetylation of AcK101 ECHS1 peptide, MS. It is filed as biochemical. The following applies: 1 mM NAD+, 30 mM HEPES pH 7.0, 37 °C; acetylated 9-residue ECHS1 peptide as co-substrate.

Substrate in the data set “purified protein”: C/C=C/C(=O)SCCNC(=O)CCNC(=O)[C@H](O)C(C)(C)COP(=O)(O)OP(=O)(O)OC[C@H]1O[C@@H](n2cnc3c(N)ncnc32)[C@H](O)[C@@H]1OP(=O)(O)O
The experiment in a line: purified protein. It is filed as biochemical, Homo sapiens. The conditions noted are these: 50 mM Tris-HCl pH 8.0.

For `NC(=O)c1ccc[n+]([C@@H]2O[C@H](COP(=O)(O)OP(=O)(O)OC[C@H]3O[C@@H](n4cnc5c(N)ncnc54)[C@H](O)[C@@H]3O)[C@@H](O)[C@H]2O)c1` [NAD^+], the “deacetylation of AcK101 ECHS1 peptide, MS” value on SIRT3 is “SIRT3 deacetylated synthetic AcK101-containing ECHS1 peptide in an NAD^+-dependent manner in vitro”.

B1: ECHS1 (enoyl-CoA hydratase-1) (Homo sapiens) (protein)
chain: ASGANFEYIIAEKRGKNNTVGLIQLNRPKALNALCDGLIDELNQALKTFEEDPAVGAIVLTGGDKAFAAGADIKEMQNLSFQDCYSSKFLKHWDHLTQVKKPVIAAVNGYAFGGGCELAMMCDIIYAGEKAQFAQPEILIGTIPGAGGTQRLTRAVGKSLAMEMVLTGDRISAQDAKQAGLVSKICPVETLVEEAIQCAEKIASNSKIVVAMAKESVNAAFEMTLTEGSKLEKKLFYSTFATDDRKEGMTAFVEKRKANFKDQ
Turning to B1, in the data set “purified protein”, the Km (as a rule, the concentration of substrate that gives half-maximal velocity) was 360 ± 180 µM.

B2: ECHS1 (enoyl-CoA hydratase-1) (Homo sapiens; K101Q) (protein)
chain: ASGANFEYIIAEKRGKNNTVGLIQLNRPKALNALCDGLIDELNQALKTFEEDPAVGAIVLTGGDKAFAAGADIQEMQNLSFQDCYSSKFLKHWDHLTQVKKPVIAAVNGYAFGGGCELAMMCDIIYAGEKAQFAQPEILIGTIPGAGGTQRLTRAVGKSLAMEMVLTGDRISAQDAKQAGLVSKICPVETLVEEAIQCAEKIASNSKIVVAMAKESVNAAFEMTLTEGSKLEKKLFYSTFATDDRKEGMTAFVEKRKANFKDQ
As for B2, the Km in “purified protein” came out at 740 ± 430 µM.

B3: ECHS1 (enoyl-CoA hydratase-1) (Homo sapiens; K101R) (protein)
chain: ASGANFEYIIAEKRGKNNTVGLIQLNRPKALNALCDGLIDELNQALKTFEEDPAVGAIVLTGGDKAFAAGADIREMQNLSFQDCYSSKFLKHWDHLTQVKKPVIAAVNGYAFGGGCELAMMCDIIYAGEKAQFAQPEILIGTIPGAGGTQRLTRAVGKSLAMEMVLTGDRISAQDAKQAGLVSKICPVETLVEEAIQCAEKIASNSKIVVAMAKESVNAAFEMTLTEGSKLEKKLFYSTFATDDRKEGMTAFVEKRKANFKDQ
Regarding B3, the Km in “purified protein” came out at 300 ± 80 µM.

For the origin of these results see paper PMC5587591, “Enoyl-CoA hydratase-1 regulates mTOR signaling and apoptosis by sensing nutrients” (Nature Communications, 2017).
